# Experimental data from patent US20220119523A1, “TREATMENT OF CUTANEOUS T CELL LYMPHOMA WITH TARGETING OF CD47 PATHWAY” (The Board of Trustees of the Leland Stanford Junior …, priority 2019, published 2022).
# B1: anti-CCR4: antibody that corresponds to mogamulizumab, a defucosylated anti-CCR4 humanized IgG1 antibody binding the N-terminal domain of CCR4 (antibody, chains of the INN, looked up, V domains shown)
# VH: EVQLVESGGDLVQPGRSLRLSCAASGFIFSNYGMSWVRQAPGKGLEWVATISSASTYSYYPDSVKGRFTISRDNAKNSLYLQMNSLRVEDTALYYCGRHSDGNFAFGYWGQGTLVTVSS
# VL: DVLMTQSPLSLPVTPGEPASISCRSSRNIVHINGDTYLEWYLQKPGQSPQLLIYKVSNRFSGVPDRFSGSGSGTDFTLKISRVEAEDVGVYYCFQGSLLPWTFGQGTKVEIK
# B2: Magrolimab: monoclonal antibody designed to block CD47; specifically binds human CD47; humanized 5F9 with IgG4 (antibody, chains of the INN, looked up, V domains shown)
# VH: QVQLVQSGAEVKKPGASVKVSCKASGYTFTNYNMHWVRQAPGQRLEWMGTIYPGNDDTSYNQKFKDRVTITADTSASTAYMELSSLRSEDTAVYYCARGGYRAMDYWGQGTLVTVSS
# VL: DIVMTQSPLSLPVTPGEPASISCRSSQSIVYSNGNTYLGWYLQKPGQSPQLLIYKVSNRFSGVPDRFSGSGSGTDFTLKISRVEAEDVGVYYCFQGSHVPYTFGQGTKLEIK
# What was measured:
# [1] = system: newly diagnosed AML patients 65 years or older; details: 75 mg/m^2 per day SC for 7 consecutive days per 28-day cycle, at least 6 cycles; conventional care regimens 6.5 months; cited from earlier work
# CTCL tumor cells = test: In vitro phagocytosis assay, co-culture of macrophages with CTCL tumor cells; format: cell-based, human; details: for phagocytosis (percentage of GFP+ macrophages): 2 hours co-culture
# Method: (§1) Cancer Cells. HH (CTCL lymphoblast ATCC); HuT78 (Sezary Syndrome CTCL, ATCC); HuT102 (Mycosis Fungoides CTCL, ATCC); and MJ (Mycosis Fungoides CTCL, ATCC) were cultured in RPMI (ThermoFisher S.) (DLD1), EMEM (ThermoFisher S.) (CACO-2, LS174T), McCoy's 5A (ThermoFisher S.) (HT29, HCT116), or Leibovitz's L-15 (ThermoFisher S.) (SW48, SW 620) supplemented with 10% fetal bovine serum (Omega Scientific), 100 U/mL penicillin and 100 μg/mL streptomycin (ThermoFisher S.)
# (§2) In Vitro Phagocytosis Assay. Peripheral blood mononuclear cells were enriched by density gradient centrifugation and monocytes were purified with anti-CD14 microbeads (Miltenyi) and differentiated to macrophages by culture for 7-10 days in IMDM+GlutaMax (Invitrogen) supplemented with 10% AB-Human Serum (Invitrogen) and 100 U/mL penicillin and 100 μg/mL streptomycin (Invitrogen). Phagocytosis assays were performed by co-culture of 50,000 macrophages with 100,000 CTCL tumor cells for 2 hours, then analyzed using an LSRFortessa cell analyzer with high throughput sampler (BD Biosciences). Antibodies used for treatment included: IgG4 isotype control, anti-CD47—clone magrolimab (Stanford). Macrophages were identified by flow cytometry using anti-CD206 antibody. Dead cells were excluded from the analysis by staining with DAPI (Sigma). Phagocytosis was evaluated as the percentage of GFP+ macrophages and was normalized to the maximal response by each independent donor against each cell line.
# HH = test: In vitro phagocytosis assay, HH cell line; format: cell-based, human; details: HH cells; macrophage from NOD scid gamma mice (NSG); vs IgG4 control antibody; FIG. 2A-2B
# Method: as §1
# as §2, with “Dead cells were excluded from the analysis by staining with DAPI (Sigma).” left out
# HH tumor cells = test: Xenograft tumor model, HH cells in NSG mice; format: in vivo; details: 250 μg intraperitoneal every other day, vs PBS
# Method: (§3) Mice. 6-8 week old NSG (NOD.Cg-Prkdcscid Il2rgtm1Wjl/SzJ) mice were used.
# (§4) Xenograft Tumor Models. […] For all treatments, antibodies where administered by intraperitoneal injection (100 μl) as follows: PBS and […] (250 μg) every other day. Tumor volume and survival was monitored.
# HUT78 = test: In vitro phagocytosis assay, HUT78 cell line; format: cell-based, human; details: HUT78 cells; macrophage from NOD scid gamma mice (NSG); vs IgG4 control antibody; FIG. 2A-2B
# HuT78 tumor cells = test: Xenograft tumor model, HuT78 cells in NSG mice; format: in vivo; details: 250 μg intraperitoneal every other day, vs PBS
# Method: as §3, §4
molecule,measurement,setting,value
Nc1ncn([C@@H]2O[C@H](CO)[C@@H](O)[C@H]2O)c(=O)n1 [azacitidine],Median OS,[1],10.4 months
B1,"phagocytosis, combination of anti-CD47 and anti-CCR4","CTCL tumor cells; FIG. 3A-3B, combined antibodies",synergizes with anti-CD47 antibody
same,"phagocytosis, antibody by itself","CTCL tumor cells; FIG. 3A-3B, single agent",little or no effect on phagocytosis
B2,phagocytosis (percentage of GFP+ macrophages),CTCL tumor cells; human macrophages (FIG. 2B),significant increase in phagocytosis
same,phagocytosis (percentage of GFP+ macrophages),CTCL tumor cells; mouse macrophages (FIG. 2A),significant increase in phagocytosis
same,phagocytosis (percent of phagocytosis / percent of maximum phagocytosis),HH,increased phagocytosis
same,tumor volume,HH tumor cells; FIG. 4A,reduced
same,survival,HH tumor cells; FIG. 4B,improved
same,phagocytosis (percent of phagocytosis / percent of maximum phagocytosis),HUT78,increased phagocytosis
same,tumor volume,HuT78 tumor cells; FIG. 5A,reduced
same,survival,HuT78 tumor cells; FIG. 5B,improved
